Measurements reported in publication PMC9578707, “Identification of orphan ligand-receptor relationships using a cell-based CRISPRa enrichment screening platform” (eLife, 2022).
One block for each binder: values may come before it.

What was measured:
[1] = biological target: ROR1 and MFRP; assay: SPR; Biacore T100; biotinylated receptor ECD or hit protein captured on a streptavidin chip (~100-200 RU), non-biotinylated secreted ligand as analyte in twofold dilutions; HBS-P+ buffer; 1:1 Langmuir model or equilibrium fit
[2] = biological target: T1, MFRP-ECD (human, UniProt Q9BY79 91-579, biotin (captured on the streptavidin chip)); assay: as above; conditions: both partners purified
T1 construct: membrane Frizzled-related protein, human, extracellular domain; construct of the ECD is not described; also called membrane Frizzled (FZD)-related protein; source: Expi293F, purified (Ni-NTA, SEC)
T1 sequence (looked up): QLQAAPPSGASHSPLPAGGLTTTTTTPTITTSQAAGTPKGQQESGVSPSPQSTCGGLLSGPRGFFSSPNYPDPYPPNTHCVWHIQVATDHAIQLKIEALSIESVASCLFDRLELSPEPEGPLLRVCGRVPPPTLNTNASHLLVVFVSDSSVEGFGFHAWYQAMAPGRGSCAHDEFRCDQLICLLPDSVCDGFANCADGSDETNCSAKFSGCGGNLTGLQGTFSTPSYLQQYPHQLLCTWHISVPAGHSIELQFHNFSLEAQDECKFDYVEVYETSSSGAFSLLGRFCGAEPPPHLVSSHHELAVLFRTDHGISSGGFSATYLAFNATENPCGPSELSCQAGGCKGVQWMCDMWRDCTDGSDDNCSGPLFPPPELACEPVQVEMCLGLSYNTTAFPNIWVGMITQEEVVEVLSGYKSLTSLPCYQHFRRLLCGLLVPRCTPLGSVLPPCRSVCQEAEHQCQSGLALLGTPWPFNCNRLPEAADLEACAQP

[3] = biological target: T2, ROR1-ECD (human, UniProt Q01973 30-406, biotin (captured on the streptavidin chip)); assay: as above; conditions: both partners purified
T2 construct: ROR1, human, extracellular domain; construct of the ECD is not described; source: Expi293F, purified (Ni-NTA, SEC)

[4] = biological target: T3, MFRP-ECD (membrane Frizzled-related protein, extracellular domain) (human, UniProt Q9BY79 91-579, biotin (BirA biotinylation; captured on streptavidin chip)); assay: SPR; Biacore T100; biotinylated ligand captured on a streptavidin (SA) Series S chip (~100-200 RU); non-biotinylated analyte in twofold dilutions in HBS-P+; 60 s injection at 30 ul/min, 240 s dissociation; regeneration 2 x 10 sec 2M MgCl2; KD from the fit at equilibrium (steady state); conditions: both partners purified
T3 construct: membrane Frizzled-related protein (MFRP), human, extracellular domain; source: Expi293F, purified (Ni-NTA, SEC), biotinylated in vitro with BirA
T3 sequence (looked up): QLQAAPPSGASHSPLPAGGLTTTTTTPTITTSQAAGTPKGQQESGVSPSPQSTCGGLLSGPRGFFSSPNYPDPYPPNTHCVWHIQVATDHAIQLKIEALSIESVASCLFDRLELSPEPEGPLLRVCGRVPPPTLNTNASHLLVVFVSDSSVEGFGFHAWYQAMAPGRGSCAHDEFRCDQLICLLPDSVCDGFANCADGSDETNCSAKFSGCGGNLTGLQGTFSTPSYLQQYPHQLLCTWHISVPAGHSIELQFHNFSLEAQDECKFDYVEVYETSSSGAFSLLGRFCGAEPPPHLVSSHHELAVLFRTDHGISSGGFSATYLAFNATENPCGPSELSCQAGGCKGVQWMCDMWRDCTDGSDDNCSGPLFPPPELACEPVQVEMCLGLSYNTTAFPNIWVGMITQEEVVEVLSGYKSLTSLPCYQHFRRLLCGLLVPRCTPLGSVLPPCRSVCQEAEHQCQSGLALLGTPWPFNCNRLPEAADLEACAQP

[5] = biological target: T4, ROR1-ECD (transmembrane receptor tyrosine kinase ROR1, extracellular domain) (human, UniProt Q01973 30-406, biotin (BirA biotinylation; captured on streptavidin chip)); assay: as above; conditions: both partners purified
T4 construct: receptor tyrosine kinase ROR1, human, extracellular domain; source: Expi293F, purified (Ni-NTA, SEC), biotinylated in vitro with BirA

[6] = biological target: the molecule itself; assay: SPR; Biacore T100; biotinylated receptor ECD or hit protein captured on a streptavidin chip (~100-200 RU), non-biotinylated secreted ligand as analyte in twofold dilutions; HBS-P+ buffer; 1:1 Langmuir model or equilibrium fit
[7] = biological target: T5, growth arrest specific 1 protein (GAS1) (human, UniProt P54826 40-317); assay: SPR; Biacore T100; biotinylated ligand captured on a streptavidin (SA) Series S chip (~100-200 RU); non-biotinylated analyte in twofold dilutions in HBS-P+; 60 s injection at 30 ul/min, 240 s dissociation; regeneration 2 x 10 sec 2M MgCl2; KD from the fit at equilibrium (steady state); conditions: both partners purified
T5 construct: growth arrest specific 1 (GAS1), human; source: Expi293F, purified (Ni-NTA, SEC), not biotinylated (SPR analyte)
T5 sequence (looked up): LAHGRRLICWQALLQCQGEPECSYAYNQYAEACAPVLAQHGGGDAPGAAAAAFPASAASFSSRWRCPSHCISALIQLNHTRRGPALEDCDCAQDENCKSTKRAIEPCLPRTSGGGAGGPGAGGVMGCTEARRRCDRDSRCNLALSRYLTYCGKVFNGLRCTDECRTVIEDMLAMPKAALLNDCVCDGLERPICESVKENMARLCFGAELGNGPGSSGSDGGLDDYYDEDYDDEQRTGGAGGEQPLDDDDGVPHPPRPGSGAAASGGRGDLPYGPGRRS

Kd [1]: 1000 to 2000 nM
binding result [2]: binds
binding result [3]: binds
B1: pleiotrophin (ligand, human, UniProt P21246 33-168, looked up)
chain: GKKEKPEKKVKKSDCGEWQWSVCVPTSGDCGLGTREGTRTGAECKQTMKTQRCKIPCNWKKQFGAECKYQFQAWGECDLNTALKTRTGSLKRALHNAECQKTVTISKPCGKLTKPKPQAESKKKKKEGKKQEKMLD
modifications: biotin (biotinylated in vitro with BirA) where used on beads or captured on the chip
notes: pleiotrophin, human; also called PTN; source: Expi293F, purified (Ni-NTA, SEC); not shown: AviTag, C-terminal, kept

Kd [4]: 1220 nM
Kd [5]: 1660 nM
B2: pleiotrophin (PTN) (ligand, human, UniProt P21246 33-168, looked up)
chain: GKKEKPEKKVKKSDCGEWQWSVCVPTSGDCGLGTREGTRTGAECKQTMKTQRCKIPCNWKKQFGAECKYQFQAWGECDLNTALKTRTGSLKRALHNAECQKTVTISKPCGKLTKPKPQAESKKKKKEGKKQEKMLD
notes: pleiotrophin (PTN), human; source: Expi293F, purified (Ni-NTA, SEC), not biotinylated (SPR analyte)

B3: SMOC1 (ligand, human, UniProt Q9H4F8 27-434, looked up)
chain: HRTTGPRFLISDRDPQCNLHCSRTQPKPICASDGRSYESMCEYQRAKCRDPTLGVVHRGRCKDAGQSKCRLERAQALEQAKKPQEAVFVPECGEDGSFTQVQCHTYTGYCWCVTPDGKPISGSSVQNKTPVCSGSVTDKPLSQGNSGRKDDGSKPTPTMETQPVFDGDEITAPTLWIKHLVIKDSKLNNTNIRNSEKVYSCDQERQSALEEAQQNPREGIVIPECAPGGLYKPVQCHQSTGYCWCVLVDTGRPLPGTSTRYVMPSCESDARAKTTEADDPFKDRELPGCPEGKKMEFITSLLDALTTDMVQAINSAAPTGGGRFSEPDPSHTLEERVVHWYFSQLDSNSSNDINKREMKPFKRYVKKKAKPKKCARRFTDYCDLNKDKVISLPELKGCLGVSKEGRLV
modifications: biotin (biotinylated in vitro with BirA) where used on beads or captured on the chip
notes: SMOC1, human; also called SPARC-related ligand; source: Expi293F, purified (Ni-NTA, SEC); not shown: AviTag, C-terminal, kept
binding result [6]: binds

Kd [7]: 1130 nM
B4: PTPRA-ECD (receptor protein tyrosine phosphatase alpha, extracellular domain) (domain or fragment, human, UniProt P18433 20-151, looked up)
chain: NNATTVAPSVGITRLINSSTAEPVKEEAKTSNPTSSLTSLSVAPTFSPNITLGPTYLTTVNSSDSDNGTTRTASTNSIGITISPNGTWLPDNQFTDARTEPWEGNSSTAATTPETFPPSGNSDSKDRRDETP
modifications: biotin (BirA biotinylation; captured on streptavidin chip)
notes: receptor-type protein tyrosine phosphatase alpha (PTPRA, R4 subfamily), human, extracellular domain; source: Expi293F, purified (Ni-NTA, SEC), biotinylated in vitro with BirA
